Laboratory results: patent US20200332015A1 (NAMAB THERAPEUTICS, published 2020)

How the values were obtained:
[1] = target: cynomolgus PDL1-Fc chimeric protein (cynomolgus, UniProt G7PSE7 19-238); test: SPR T200, antigen-Fc captured, molecule as analyte
Method: (§1) Affinity to PDL1 of the different species was determined by SPR measurements using a Biacore T200 device (GE Healthcare). An antibody specific for the Fc region of human IgGs was immobilized on a sensor chip (CM5 sensor chip, GE Healthcare) by amine-coupling. For all formats, with the exception of the Fc containing Morrison formats, PDL1-Fc chimeric protein from different species were captured by the immobilized antibody. Three-fold serial dilutions of the molecules specific for PDL1 (0.12-90 nM) were injected into the flow cells for three minutes and dissociation was monitored for 10 minutes. After each injection cycle, surfaces were regenerated with one injection of a 3 M MgCl₂ solution. The apparent dissociation (kd) and association (kₐ) rate constants and the apparent dissociation equilibrium constant (KD) were calculated using one-to-one Langmuir binding model. Affinity to CD137 of the different species was determined using the identical setup as for PDL1 with the exception that CD137-Fc chimeric proteins from different species were captured by the immobilized antibody.

[2] = target: human PDL1-Fc chimeric protein (human, UniProt Q9NZQ7 19-238, limits assumed); test: SPR T200, antigen-Fc captured, molecule as analyte
Method: as §1

[3] = target: T1, cynomolgus monkey Fc-tagged CD137 (R&D Systems, cat. 9324-4B-100) (cynomolgus monkey, UniProt A9YYE7 24-186); test: SPR T200, Fc-tagged antigen captured, scFv analyte
T1 construct: also called cynomolgus CD137-Fc chimeric protein
Method: (§2) Affinity of the humanized scFvs to human CD137 was determined by SPR analysis on a T200 device (Biacore, GE Healthcare). […] After each analyte injection cycle, the anti-human Fc-specific IgG was regenerated and new antigen was captured. The scFvs were injected as analyte using a dose response multi-cycle kinetic assay over the captured CD137 with concentrations of the analyte ranging from 0.19 to 45 nM (three-fold dilutions steps) diluted in running buffer. Association and dissociation time were set to 300 s and 720 s, respectively. Obtained sensorgrams were fitted using the 1:1 binding model.
Cross-reactivity to cynomolgus CD137 was measured with cynomolgus monkey Fc-tagged CD137 (R&D Systems, cat. 9324-4B-100) in a similar assay as used to measure binding to human CD137.

[4] = target: T2, Fc tagged human CD137 (R&D Systems, cat. 838-4B-100) (human, UniProt Q07011 24-186); test: SPR T200, Fc-tagged antigen captured, scFv analyte
T2 construct: also called CD137 Fc chimera; human CD137-Fc chimeric protein
Method: as §2

[5] = target: T3, human CD137 expressed on Jurkat cells (human, UniProt Q07011 24-255); test: cell-based or functional assay
[6] = target: T3, human CD137 expressed on Jurkat cells; test: cell-based or functional assay; remark: listed apart in the source
[7] = target: T2, Fc tagged human CD137 (R&D Systems, …); test: SPR T200, antigen-Fc captured, molecule as analyte
Method: as §1

[8] = target: T3, human CD137 expressed on Jurkat cells; test: cell-based or functional assay; remark: listed apart in the source
[9] = target: T4, human PDL1 extracellular domain (human, UniProt Q9NZQ7 19-238); test: SPR T200, Morrison format captured, ECD analyte
T4 construct: extracellular domain; Analyte for the Fc containing Morrison formats
Method: as §1
The Fc containing formats were directly captured by the antibody specific for the Fc region of human IgGs. Two-fold serial dilutions of PDL1 extracellular domain or CD137 extracellular domain ranging from 90 to 0.35 nM were tested for binding to the IgG captured on the biosensor chip. After each injection cycle, surfaces were regenerated with one injection of a 3 M MgCl2 solution.

T1 sequence (A9YYE7 entry or part of it): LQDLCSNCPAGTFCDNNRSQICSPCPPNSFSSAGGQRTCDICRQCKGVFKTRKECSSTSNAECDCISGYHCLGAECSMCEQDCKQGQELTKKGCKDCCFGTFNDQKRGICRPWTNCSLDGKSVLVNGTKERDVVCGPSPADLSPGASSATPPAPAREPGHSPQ
Sequence of cynomolgus PDL1-Fc chimeric protein (G7PSE7 entry or part of it mutant): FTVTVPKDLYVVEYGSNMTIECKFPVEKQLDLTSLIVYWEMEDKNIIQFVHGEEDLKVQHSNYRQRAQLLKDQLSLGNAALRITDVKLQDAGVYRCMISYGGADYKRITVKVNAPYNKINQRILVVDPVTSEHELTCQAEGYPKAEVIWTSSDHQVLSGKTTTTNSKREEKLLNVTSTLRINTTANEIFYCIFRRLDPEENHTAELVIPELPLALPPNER

Kd [1] | koff [1] | kon [1] | Kd [2] | koff [2] | kon [2] | Kd [3] | koff [3] | kon [3] | Kd [4] | koff [4] | kon [4] | Binder | further results
0.053 nM | 0.00032 s⁻¹ | 5.9e+06 M⁻¹ s⁻¹ | 0.045 nM | 0.00027 s⁻¹ | 6e+06 M⁻¹ s⁻¹ | – | – | – | – | – | – | PRO1013 (37-20-B03 CDR, VH1, scFv) (scFv, its row bears no clone label) scFv: DIQMTQSPSSLSASVGDRVTITCQASQSIGTYLAWYQQKPGKAPKLLIYRAFILASGVPSRFSGSGSGTDFTLTISSLQPEDFATYYCQSNFYSDSTTIGPNAFGTGTKVTVLGGGGGSGGGGSGGGGSGGGGSQVQLVQSGAEVKKPGASVKVSCKASGFSFNSDYWIYWVRQAPGQGLEWMGSIYGGSSGNTQYASWAQGRVTMTRDTSISTAYMELSSLRSEDTAVYYCARGYVDYGGATDLWGQGTLVTVSS | –
– | – | – | – | – | – | 1.36 nM | 0.00053 s⁻¹ | 388000 M⁻¹ s⁻¹ | 1.37 nM | 0.00048 s⁻¹ | 350000 M⁻¹ s⁻¹ | PRO1181 (38-02-A04-sc05, IF graft, VH4, scFv) (scFv, VL-linker-VH) scFv: DIQMTQSPSSLSASVGDRVTITCQASQSINNVLAWYQQKPGKPPKLLIYRASTLASGVPSRFSGSGSGTDFTLTISSLQPEDFATYYCQSSYGNYGDFGTGTKVTVLGGGGGSGGGGSGGGGSGGGGSQVQLQESGPGLVKPSETLSLTCKVSGFSFSNSYWICWVRQPPGKGLEWIGCTFVGSSDSTYYANWAKGRVTISVDSSKNQVSLKLSSVTAADTAVYFCARHPSDAVYGYANNLWGQGTLVTVSS | –
– | – | – | – | – | – | 0.0142 nM | 1.83e-05 s⁻¹ | 1.29e+06 M⁻¹ s⁻¹ | 0.0179 nM | 2.58e-05 s⁻¹ | 1.44e+06 M⁻¹ s⁻¹ | PRO1182 (38-02-A04-sc06, FULL graft, VH4, scFv) (scFv, VL-linker-VH) scFv: DLQMTQSPSSLSASVGDRVTITCQASQSINNVLAWYQQKPGKPPKLLIYRASTLASGVPSRFSGSGSGTDFTLTISSLQPEDFATYYCQSSYGNYGDFGTGTKVTVLGGGGGSGGGGSGGGGSGGGGSQVQLQESGPGLVKPSETLSLTCKASGFSFSNSYWICWVRQPPGKGLEWIGCTFVGSSDSTYYANWAKGRVTISKDSSKNQVSLKLSSVTAADTAVYFCARHPSDAVYGYANNLWGQGTLVTVSS | –
– | – | – | 0.16 nM | 0.00019 s⁻¹ | 1.2e+06 M⁻¹ s⁻¹ | – | – | – | – | – | – | PRO1058 (38_27_C05 scDb-i/33-03-G02 sc01 scDb-o/mxr HSA (23-13-A01-sc03, sk17sh4)) (other, Trispecific scDb-scFv; also called PR01058) DIQMTQSPSSLSASVGDRVTITCQASQSINDYLAWYQQKPGKAPKLLIYKASTLASGVPSRFSGSGSGTDFTLTISSLQPEDFATYYCQQGYIITDIDNVFGTGTKVTVLGGGGGSQVQLQESGPGLVKPSETLSLTCKVSGFSFNNDYDMCWIRQPPGKGLEWIGCIDTGDGSTYYASWAKGRVTISVDSSKNQFSLKLSSVTAADTAVYYCAREAASSSGYGMGYFDLWGQGTLVTVSSGGGGSGGGGSGGGGSGGGGSIQMTQSPSSLSASVGDRVTITCQSSQSVYDNNWLAWYQQKPGKAPKLLIYRASNLASGVPSRFSGSGSGTDFTLTISSLQPEDFATYYCQGTYLSSNWYWAFGTGTKVTVLGGGGGSQVQLQESGPGLVKPSETLSLTCKVSGFSFSSGYDMCWIRQPPGKGLEWIGCVVAGSVDITYYASWAKGRVTISVDSSKNQFSLKLSSVTAADTAVYYCARKDAYSDAFNLWGQGTLVTVSSGGGGSGGGGSVVMTQSPSSLSASVGDRVTITCQASQIISSRSAWYQQKPGQPPKLLIYQASKLASGVPSRFSGSGSGTDFTLTISSLQPEDFATYYCQCTYIDSNFGAFGGGTKLTVLGGGGGSGGGGSGGGGSGGGGSEVQLVESGGGLVQPGGSLRLSCAASGFSFSSSYWICWVRQAPGKGLEWVGCVFTGDGTTYYASWAKGRFTISRDNSKNTVYLQMNSLRAEDTATYFCARPVSVYYYGMDLWGQGTLVTVSS | max. activation, NF-kB reporter gene, CHO-PD-L1, 24h [5]: 36.2%; rel. IC50 (urelumab/test), NF-kB reporter gene, CHO-PD-L1, 24h [5]: 0.64 ratio; EC50 NFkB-luciferase, CHO-PDL1 cells, 24 h, + HBA (so in the source) [6]: 0.121 µg/mL; Top of curve fit, NFkB-luciferase, CHO-PDL1 cells, 24 h, + HBA (so in the source) [6]: 20.5; Kd [7]: 1.2 nM; koff [7]: 0.0021 s⁻¹; kon [7]: 1.7e+06 M⁻¹ s⁻¹; EC50 NFkB-luciferase, CHO-PDL1 cells, 6 h, + HSA [8]: 0.0709 µg/mL; Top of curve fit, NFkB-luciferase, CHO-PDL1 cells, 6 h, + HSA [8]: 40.1
– | – | – | – | – | – | – | – | – | – | – | – | PRO1062 (33-03-G02 sc01 IgG1 HC with 38_27_C05 sc01 scFv, PDL1/CD137(scFv) silent Morrison) (bispecific antibody, also called PR01062; Morrison-H) light: DIQMTQSPSSLSASVGDRVTITCQASQSINDYLAWYQQKPGKAPKLLIYKASTLASGVPSRFSGSGSGTDFTLTISSLQPEDFATYYCQQGYIITDIDNVFGTGTKVTVLGTVAAPSVFIFPPSDEQLKSGTASVVCLLNNFYPREAKVQWKVDNALQSGNSQESVTEQDSKDSTYSLSSTLTLSKADYEKHKVYACEVTHQGLSSPVTKSFNRGEC heavy: QVQLQESGPGLVKPSETLSLTCKVSGFSFSSGYDMCWIRQPPGKGLEWIGCVVAGSVDITYYASWAKGRVTISVDSSKNQFSLKLSSVTAADTAVYYCARKDAYSDAFNLWGQGTLVTVSSASTKGPSVFPLAPSSKSTSGGTAALGCLVKDYFPEPVTVSWNSGALTSGVHTFPAVLQSSGLYSLSSVVTVPSSSLGTQTYICNVNHKPSNTKVDKRVEPKSCDKTHTCPPCPAPEAAGGPSVFLFPPKPKDTLMISRTPEVTCVVVDVSHEDPEVKFNWYVDGVEVHNAKTKPREEQYNSTYRVVSVLTVLHQDWLNGKEYKCKVSNKALGAPIEKTISKAKGQPREPQVYTLPPSREEMTKNQVSLTCLVKGFYPSDIAVEWESNGQPENNYKTTPPVLDSDGSFFLYSKLTVDKSRWQQGNVFSCSVMHEALHNHYTQKSLSLSPGKGGGGSGGGGSIQMTQSPSSLSASVGDRVTITCQASQSINNVLAWYQQKPGKAPKLLIYRASTLASGVPSRFSGSGSGTDFTLTISSLQPEDFATYYCQSSYGNYGDFGTGTKVTVLGGGGGSGGGGSGGGGSGGGGSQVQLQESGPGLVKPSETLSLTCKVSGFSFSNSYWICWIRQPPGKGLEWIGCTFVGSSDSTYYANWAKGRVTISVDSSKNQFSLKLSSVTAADTAVYYCARHPSDAVYGYANNLWGQGTLVTVSS | Kd [9]: 0.038 nM; koff [9]: 5e-05 s⁻¹; kon [9]: 1.3e+06 M⁻¹ s⁻¹
0.094 nM | 0.0002 s⁻¹ | 2.2e+06 M⁻¹ s⁻¹ | 0.076 nM | 0.00016 s⁻¹ | 2.1e+06 M⁻¹ s⁻¹ | – | – | – | – | – | – | PRO830 (33-03-G02 CDR, scFv) (scFv) scFv: DIQMTQSPSSLSASVGDRVTITCQASQSINDYLAWYQQKPGKAPKLLIYKASTLASGVPSRFSGSGSGTDFTLTISSLQPEDFATYYCQQGYIITDIDNVFGTGTKVTVLGGGGGSGGGGSGGGGSGGGGSQVQLQESGPGLVKPSETLSLTCKVSGFSFSSGYDMCWIRQPPGKGLEWIGCVVAGSVDITYYASWAKGRVTISVDSSKNQFSLKLSSVTAADTAVYYCARKDAYSDAFNLWGQGTLVTVSS | –
